B1: mAb 5A1.1 (antibody, human IgG2)
heavy: QVQLVQSGAEVKKPGASVKVPCKASGYTFTDYYINWVRQAPGQGLEWMGWINPNNGGTNYAQKFQGRVTMTRDTSISTAYMELRRLRSDDTAVYYCARERGGYEDWFDPWGQGTLVTVSSASTKGPSVFPLAPCSRSTSESTAALGCLVKDYFPEPVTVSWNSGALTSGVHTFPAVLQSSGLYSLSSVVTVPSSNFGTQTYTCNVDHKPSNTKVDKTVERKCCVECPPCPAPPVAGPSVFLFPPKPKDTLMISRTPEVTCVVVDVSHEDPEVQFNWYVDGVEVHNAKTKPREEQFNSTFRVVSVLTVVHQDWLNGKEYKCKVSNKGLPAPIEKTISKTKGQPREPQVYTLPPSREEMTKNQVSLTCLVKGFYPSDIAVEWESNGQPENNYKTTPPMLDSDGSFFLYSKLTVDKSRWQQGNVFSCSVMHEALHNHYTQKSLSLSPGK
VL: QSVLTQPPSVSGAPGQRVTISCTGSSSNIGAGFDVHWYQQLPVTAPKLLIYGNRNRPSGVPARFSGSKSGTSASLAITGLQAEDEAVYYCQSYDSSLTVFGGGTKLTVL
notes: fully human, Campaign 2; lambda CL-1
B2: mAb 5B5.2 (antibody, human IgG2, lambda, V domains shown)
VH: QVQLVQSGAEVKKPGASVKVSCKASGYTFTDYYINWVRQAPGQGLEWMGWINPNSGGTDYAQKFQGRVTMTRDTSIRTAYMELNRLTSDDTAVYYCAREYGGYEDWFDPWGQGTLVTVSS
VL: QSVLTQPPSVSGAPGQRVTISCTGSNSNIGAGFDVHWYQQLPGTVPKLLIYGNNNRPSGVPDRFSGSKSGTSASLAITGLQAEDEADYYCQSYDSRLTVFGGGTKLTVLG
notes: fully human IgG2 lambda, Campaign 2; same chains as 5B5.1

Legend:
[1] = molecular target: T1, hOrai1-mOrai1 ECL2 chimeric protein (human/mouse chimera, UniProt Q96D31 1-301); experiment: FACS, 293EBNA; set-up: concentration or dose not given beside the values
T1 construct: human Orai1 with mouse ECL2; also called Ch
Text: (§1) FIG. 16A-D illustrates the results of FACS analysis showing binding to the indicated mOrai1-hOrai1 ECL2 chimeric mutants expressed on the surface of HEK-293-EBNA cells. Transfected cells were stained first with recombinant monoclonal antibodies then counter-stained with a secondary phycoerythrin-labeled goat (“Gt”) anti-human (“Hu”) IgG F(ab′)₂ antibody fragment and visualized using FACS. In FIG. 16B and FIG. 16D, The values of Relative Fluorescence Intensity as Percent of Control (RFI-POC) are calculated from the relative fluorescence intensity geometric mean (Geo Mean). The geometric mean is an average calculated by multiplying a series of numbers and taking the nth root where n is the number of numbers in the series. It is a statistical average of a set of transformed numbers often used to represent a central tendency in a highly variable data set that minimizes the effects of extreme values.
(§2) Table 11A and Table 11B feature a schematic representation of the POC data from FIG. 16B and FIG. 16D, respectively, where the binding results are recorded as (+++) denoting binding POC from 40% to 100%, (++) for POC of 5% to less than 40%, (+) for POC from 1% to less than 5% and (−) as lack of binding with POC less than 1%.

[2] = molecular target: T2, mOrai1-hOrai1 ECL2 (…) protein (human/mouse chimera, UniProt Q8BWG9 1-304 (mouse entry)); experiment: FACS, 293EBNA; set-up: concentration or dose not given beside the values
T2 construct: also called Ch
Text: as §1, §2
T2 sequence (Q8BWG9 other isoform, or with tags, fused parts or gaps): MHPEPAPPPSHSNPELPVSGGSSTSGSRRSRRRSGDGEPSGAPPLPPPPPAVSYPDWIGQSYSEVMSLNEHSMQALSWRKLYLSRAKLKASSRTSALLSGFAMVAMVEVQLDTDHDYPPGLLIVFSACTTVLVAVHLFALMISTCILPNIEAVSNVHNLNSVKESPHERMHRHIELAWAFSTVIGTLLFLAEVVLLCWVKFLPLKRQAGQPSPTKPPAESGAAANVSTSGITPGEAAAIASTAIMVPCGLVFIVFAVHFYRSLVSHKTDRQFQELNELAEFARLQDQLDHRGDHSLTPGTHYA

[3] = molecular target: T3, mOrai1-hOrai1 ECL2 (SPTKPPAE) protein (human/mouse chimera, UniProt Q8BWG9 1-304 (mouse entry)); experiment: FACS, 293EBNA; set-up: concentration or dose not given beside the values
T3 construct: also called Ch
Text: as §1, §2

[4] = molecular target: T4, mOrai1-hOrai1 ECL2 (KPPAE) protein (human/mouse chimera, UniProt Q8BWG9 1-304 (mouse entry)); experiment: FACS, 293EBNA; set-up: concentration or dose not given beside the values
T4 construct: also called Ch
Text: as §1, §2

[5] = molecular target: T5, mOrai1-hOrai1 ECL2 (…) protein (human/mouse chimera, UniProt Q8BWG9 1-304 (mouse entry)); experiment: FACS, 293EBNA; set-up: concentration or dose not given beside the values; remark: listed apart in the source
T5 construct: also called Ch
Text: as §1, §2
T5 sequence (Q8BWG9 other isoform, or with tags, fused parts or gaps): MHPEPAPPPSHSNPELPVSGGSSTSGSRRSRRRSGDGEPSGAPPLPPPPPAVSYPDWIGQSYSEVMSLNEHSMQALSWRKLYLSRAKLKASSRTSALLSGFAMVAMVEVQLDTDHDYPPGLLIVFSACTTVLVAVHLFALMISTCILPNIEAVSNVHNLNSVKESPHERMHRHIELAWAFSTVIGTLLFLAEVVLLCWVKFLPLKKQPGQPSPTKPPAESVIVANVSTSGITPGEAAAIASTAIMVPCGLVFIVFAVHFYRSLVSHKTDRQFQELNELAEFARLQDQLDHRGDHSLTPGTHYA

[6] = molecular target: T6, mOrai1-hOrai1 ECL2 (…) protein (human/mouse chimera, UniProt Q8BWG9 1-304 (mouse entry)); experiment: FACS, 293EBNA; set-up: concentration or dose not given beside the values; remark: listed apart in the source
T6 construct: also called Ch
Text: as §1, §2
T6 sequence (Q8BWG9 other isoform, or with tags, fused parts or gaps): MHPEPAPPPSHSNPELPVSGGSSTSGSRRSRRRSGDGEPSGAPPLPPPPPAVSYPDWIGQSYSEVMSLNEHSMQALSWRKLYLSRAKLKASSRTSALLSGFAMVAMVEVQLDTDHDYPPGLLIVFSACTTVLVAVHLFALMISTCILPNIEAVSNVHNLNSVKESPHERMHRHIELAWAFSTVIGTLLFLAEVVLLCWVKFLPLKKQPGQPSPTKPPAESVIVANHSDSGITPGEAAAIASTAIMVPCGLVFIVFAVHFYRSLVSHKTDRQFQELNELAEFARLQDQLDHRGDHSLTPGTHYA

[7] = molecular target: T7, mOrai1-hOrai1 ECL2 (…) protein (human/mouse chimera, UniProt Q8BWG9 1-304 (mouse entry)); experiment: FACS, 293EBNA; set-up: concentration or dose not given beside the values; remark: listed apart in the source
T7 construct: also called Ch
Text: as §1, §2
T7 sequence (Q8BWG9 other isoform, or with tags, fused parts or gaps): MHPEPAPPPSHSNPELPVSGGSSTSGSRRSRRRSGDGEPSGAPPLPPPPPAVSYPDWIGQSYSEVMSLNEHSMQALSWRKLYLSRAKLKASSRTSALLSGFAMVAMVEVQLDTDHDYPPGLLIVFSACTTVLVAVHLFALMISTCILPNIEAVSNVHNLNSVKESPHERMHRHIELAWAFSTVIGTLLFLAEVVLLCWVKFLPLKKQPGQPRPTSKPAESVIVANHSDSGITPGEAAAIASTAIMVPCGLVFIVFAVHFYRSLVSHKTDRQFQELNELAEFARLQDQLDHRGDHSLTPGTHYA

[8] = molecular target: T8, mOrai1-hOrai1 ECL2 (AESVIV) protein (human/mouse chimera, UniProt Q8BWG9 1-304 (mouse entry)); experiment: FACS, 293EBNA; set-up: concentration or dose not given beside the values
T8 construct: also called Ch
Text: as §1, §2

human Orai1 = human Orai1 (human, UniProt Q96D31 1-301); experiment: cell-based or functional assay
[9] = molecular target: T9, mOrai1-hOrai1 ECL2 chimeric protein (human/mouse chimera, UniProt Q8BWG9 1-304 (mouse entry)); experiment: FACS, 293EBNA, RFI-POC grade; set-up: concentration or dose not given beside the values
T9 construct: mouse Orai1 with human ECL2; also called Ch
Text: as §1, §2

[10] = molecular target: T10, mOrai1-hOrai1 ECL2 (VIV) protein (human/mouse chimera, UniProt Q8BWG9 1-304 (mouse entry)); experiment: FACS, 293EBNA, RFI-POC grade; set-up: concentration or dose not given beside the values
T10 construct: also called Ch
Text: as §1, §2

[11] = molecular target: T11, mOrai1-hOrai1 ECL2 (HSD) protein (human/mouse chimera, UniProt Q8BWG9 1-304 (mouse entry)); experiment: FACS, 293EBNA, RFI-POC grade; set-up: concentration or dose not given beside the values
T11 construct: also called Ch
Text: as §1, §2

human Orai2 = molecular target: T12, human Orai2 (human, UniProt Q96SN7 1-254); experiment: FACS, 293EBNA transfectants
T12 construct: also called hOrai2
Description: (§3) Purified monoclonal antibodies from hybridoma supernantants of the subclones derived from initial hits were assessed for binding to human Orai1, Orai2 and Orai3 expressed on HEK-293-EBNA cells along with vector transfected control parental cells. Cells stained with or without primary mAbs were counter-stained with a secondary phycoerythrin-labeled goat (“Gt”) anti-human (“Hu”) IgG F(ab′)₂ antibody fragment and visualized using FACS.
(§4) FACS binding analysis. Transfected 293EBNA cells transiently expressed hOrai1, human Orai2, or human Orai3 (results of binding comparison in FIG. 11A-B), or hOrai1(S218G) (results of binding comparison in FIG. 12A-B); or hOrai1 and hSTIM1; mOrai1 and mouse STIM1; or rat Orai1 and rat STIM1 (results of binding comparison in FIG. 13). The transfected cells were harvested at 48 hours post-transfection. Cells transfected with pcDNA3.1 were used as negative controls. Cells were washed once with ice-cold 1×PBS, resuspended in ice-cold FACS buffer (1×D-PBS+2% goat serum), and 2×10⁵ cells in […] were stained per antibody combination. All antibody incubation steps were performed on ice for 1 hour. […] Next, the unlabelled antibody was detected using goat F(ab′)₂ anti-mouse or anti-human IgG-phycoerythrin (IgG-PE), followed by a wash with 200 μL of ice-cold FACS buffer before flow cytometry analysis. Unstained cells and cells stained with detecting antibodies were used as negative controls. The values of relative level of fluorescence were calculated using FCS Express (De Novo Software) and mean values were calculated using log-transformed data (geometric mean). Purified mAbs were assessed by FACS assay for their ability to specifically bind human Orai1, Orai2 and Orai3 proteins expressed on HEK-293 cells.

human Orai3 = human Orai3 (human, UniProt Q9BRQ5 1-295); experiment: FACS, 293EBNA transfectants
Description: as §3, §4

mouse Orai1 = molecular target: T13, mouse Orai1 (mouse, UniProt Q8BWG9 1-304); experiment: FACS, 293EBNA transfectants with STIM1, thapsigargin
T13 construct: co-expressed with mouse STIM1; also called mOrai1
Description: (§5) FIG. 13A-B illustrates the results of FACS analysis showing binding to human Orai1 expressed on the surface of HEK-293-EBNA cells that were treated with 2 μM Thapsigargin. HEK-293-EBNA cells were transiently transfected with human Orai1 and human STIM1, mouse Orai1 and mouse STIM1, rat Orai1 and rat STIM1 and control empty vector. Transfected cells were stained first with recombinant monoclonal antibodies then counter-stained with a secondary phycoerythrin-labeled Gt anti-Hu IgG F(ab′)₂ or Gt anti-Mu IgG F(ab′)₂ antibody fragment, as appropriate, and visualized using FACS.
as §4

rat Orai1 = molecular target: T14, rat Orai1 (rat, UniProt Q5M848 1-304); experiment: as above
T14 construct: co-expressed with rat STIM1; also called rOrai1
Description: as §5, §4

Chain of human Orai1 (Q96D31 whole entry): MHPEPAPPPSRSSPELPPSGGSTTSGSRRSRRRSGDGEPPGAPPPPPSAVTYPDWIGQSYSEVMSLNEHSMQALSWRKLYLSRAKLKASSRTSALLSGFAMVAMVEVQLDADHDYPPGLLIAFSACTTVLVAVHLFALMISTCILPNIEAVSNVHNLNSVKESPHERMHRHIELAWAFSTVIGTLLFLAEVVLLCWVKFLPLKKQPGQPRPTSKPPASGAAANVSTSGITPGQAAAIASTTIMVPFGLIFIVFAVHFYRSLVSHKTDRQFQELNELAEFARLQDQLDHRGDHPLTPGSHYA
T12 sequence (Q96SN7 whole entry): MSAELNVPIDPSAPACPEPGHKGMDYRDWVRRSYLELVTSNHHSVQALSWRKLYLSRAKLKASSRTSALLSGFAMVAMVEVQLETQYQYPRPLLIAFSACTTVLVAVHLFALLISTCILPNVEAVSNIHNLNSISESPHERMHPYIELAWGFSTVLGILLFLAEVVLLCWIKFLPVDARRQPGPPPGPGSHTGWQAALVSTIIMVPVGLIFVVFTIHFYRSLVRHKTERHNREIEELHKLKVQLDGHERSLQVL
T4 sequence (Q8BWG9 other isoform, or with tags, fused parts or gaps): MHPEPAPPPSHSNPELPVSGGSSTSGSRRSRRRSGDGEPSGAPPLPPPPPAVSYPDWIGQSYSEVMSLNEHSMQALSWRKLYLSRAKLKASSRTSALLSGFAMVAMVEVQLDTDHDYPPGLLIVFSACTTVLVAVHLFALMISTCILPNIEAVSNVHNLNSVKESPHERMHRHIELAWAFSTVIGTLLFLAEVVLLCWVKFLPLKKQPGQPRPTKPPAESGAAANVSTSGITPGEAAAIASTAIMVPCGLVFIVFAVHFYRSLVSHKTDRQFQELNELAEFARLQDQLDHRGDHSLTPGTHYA
T9 sequence (Q8BWG9 other isoform, or with tags, fused parts or gaps mutant): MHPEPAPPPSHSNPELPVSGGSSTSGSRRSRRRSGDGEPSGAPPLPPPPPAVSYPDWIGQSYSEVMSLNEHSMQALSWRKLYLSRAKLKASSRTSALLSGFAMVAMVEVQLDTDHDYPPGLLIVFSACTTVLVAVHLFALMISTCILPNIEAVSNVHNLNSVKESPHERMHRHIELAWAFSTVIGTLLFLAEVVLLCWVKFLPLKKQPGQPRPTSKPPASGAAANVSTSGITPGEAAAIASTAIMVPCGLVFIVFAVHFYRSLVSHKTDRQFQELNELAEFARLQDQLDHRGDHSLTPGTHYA
T3 sequence (Q8BWG9 other isoform, or with tags, fused parts or gaps): as the sequence (Q8BWG9 other isoform, or with tags, fused parts or gaps mutant) above, with R212S, S215K, K216P, P218A, A219E counted along it
T8 sequence (Q8BWG9 other isoform, or with tags, fused parts or gaps): as the sequence (Q8BWG9 other isoform, or with tags, fused parts or gaps mutant) above, with P218A, A219E, G221V, A222I, A223V counted along it
T13 sequence (Q8BWG9 whole entry): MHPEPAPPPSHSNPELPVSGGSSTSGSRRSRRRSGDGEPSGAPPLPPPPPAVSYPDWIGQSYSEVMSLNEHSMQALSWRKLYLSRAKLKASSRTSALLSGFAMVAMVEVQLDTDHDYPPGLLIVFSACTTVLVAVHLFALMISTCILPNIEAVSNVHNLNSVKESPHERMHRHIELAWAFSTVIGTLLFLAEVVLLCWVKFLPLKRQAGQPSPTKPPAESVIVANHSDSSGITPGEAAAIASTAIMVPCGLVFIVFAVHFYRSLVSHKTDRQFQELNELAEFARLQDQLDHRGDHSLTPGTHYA
T10 sequence (Q8BWG9 other isoform, or with tags, fused parts or gaps): as the sequence (Q8BWG9 other isoform, or with tags, fused parts or gaps mutant) above, with G221V, A222I, A223V counted along it
T14 sequence (Q5M848 whole entry): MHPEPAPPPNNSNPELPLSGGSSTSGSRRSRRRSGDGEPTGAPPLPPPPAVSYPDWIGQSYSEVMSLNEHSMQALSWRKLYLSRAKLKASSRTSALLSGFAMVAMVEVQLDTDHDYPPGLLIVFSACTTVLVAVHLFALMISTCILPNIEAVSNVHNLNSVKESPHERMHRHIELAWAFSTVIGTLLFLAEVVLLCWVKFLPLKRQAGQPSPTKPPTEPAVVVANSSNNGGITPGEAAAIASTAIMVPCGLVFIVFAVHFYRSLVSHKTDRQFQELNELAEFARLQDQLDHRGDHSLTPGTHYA
T11 sequence (Q8BWG9 other isoform, or with tags, fused parts or gaps): as the sequence (Q8BWG9 other isoform, or with tags, fused parts or gaps mutant) above, with V226H, T228D counted along it
T1 sequence (Q96D31 other isoform, or with tags, fused parts or gaps mutant): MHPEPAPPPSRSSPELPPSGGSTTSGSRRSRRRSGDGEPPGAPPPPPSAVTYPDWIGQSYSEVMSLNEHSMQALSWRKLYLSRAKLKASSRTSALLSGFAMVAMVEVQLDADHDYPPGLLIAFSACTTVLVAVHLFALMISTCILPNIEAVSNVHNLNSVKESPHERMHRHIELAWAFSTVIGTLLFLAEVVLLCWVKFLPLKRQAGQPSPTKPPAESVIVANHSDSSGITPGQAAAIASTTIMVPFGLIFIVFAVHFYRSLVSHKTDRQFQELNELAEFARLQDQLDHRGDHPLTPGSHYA

Binder | POC (percent of control, FACS Geo Mean relative to binding to Ch. 1) [1] [%] | POC (percent of control, FACS Geo Mean relative to binding to Ch. 1) [2] [%] | POC (percent of control, FACS Geo Mean relative to binding to Ch. 1) [3] [%] | POC (percent of control, FACS Geo Mean relative to binding to Ch. 1) [4] [%] | POC (percent of control, FACS Geo Mean relative to binding to Ch. 1) [5] [%] | POC (percent of control, FACS Geo Mean relative to binding to Ch. 1) [6] [%] | POC (percent of control, FACS Geo Mean relative to binding to Ch. 1) [7] [%] | POC (percent of control, FACS Geo Mean relative to binding to Ch. 1) [8] [%] | IC50 IFN-γ, whole blood Donor A (human Orai1) [nM] | IC50 IFN-γ, whole blood Donor B (human Orai1) [nM] | IC50 IL-2, whole blood Donor A (human Orai1) [nM] | IC50 IL-2, whole blood Donor B (human Orai1) [nM] | POC (percent of control, FACS Geo Mean relative to binding to Ch. 1) [9] [%] | POC (percent of control, FACS Geo Mean relative to binding to Ch. 1) [10] [%] | POC (percent of control, FACS Geo Mean relative to binding to Ch. 1) [11] [%] | binding result (human Orai2) | binding result (human Orai3) | binding result (mouse Orai1) | binding result (rat Orai1)
B1 | < 1 | < 1 | < 1 | < 1 | < 1 | < 1 | < 1 | < 1 | 8.15 | 1.66 | 11.2 | 5.59 | 40 to 100 | 40 to 100 | 40 to 100 | no binding (tested: 1 µg) | no binding (tested: 1 µg) | no binding (tested: 1 µg) | no binding (tested: 1 µg)
B2 | < 1 | < 1 | < 1 | < 1 | < 1 | < 1 | < 1 | < 1 | – | 6.58 | 1.39 | 3.1 | 40 to 100 | 40 to 100 | 40 to 100 | no binding (tested: 1 µg) | no binding (tested: 1 µg) | no binding (tested: 1 µg) | no binding (tested: 1 µg)

Reference: US20120231006A1 (Amgen, published 2012)
